# B1: HA-SNAP-mGluR2 [modified: SNAP tag labelled with BG-LD555 (BG-LD655 in two-colour SiMPull); SNAP tag labelled with BG-LD555 (BG-LD655 in two-colour SiMPull)] [rat] / itself (parent complex)
# chain: EGPAKKVLTLEGDLVLGGLFPVHQKGGPAEECGPVNEHRGIQRLEAMLFALDRINRDPHLLPGVRLGAHILDSCSKDTHALEQALDFVRASLSRGADGSRHICPDGSYATHSDAPTAVTGVIGGSYSDVSIQVANLLRLFQIPQISYASTSAKLSDKSRYDYFARTVPPDFFQAKAMAEILRFFNWTYVSTVASEGDYGETGIEAFELEARARNICVATSEKVGRAMSRAAFEGVVRALLQKPSARVAVLFTRSEDARELLAATQRLNASFTWVASDGWGALESVVAGSERAAEGAITIELASYPISDFASYFQSLDPWNNSRNPWFREFWEERFHCSFRQRDCAAHSLRAVPFEQESKIMFVVNAVYAMAHALHNMHRALCPNTTHLCDAMRPVNGRRLYKDFVLNVKFDAPFRPADTDDEVRFDRFGDGIGRYNIFTYLRAGSGRYRYQKVGYWAEGLTLDTSFIPWASPSAGPLPASRCSEPCLQNEVKSVQPGEVCCWLCIPCQPYEYRLDEFTCADCGLGYWPNASLTGCFELPQEYIRWGDAWAVGPVTIACLGALATLFVLGVFVRHNATPVVKASGRELCYILLGGVFLCYCMTFVFIAKPSTAVCTLRRLGLGTAFSVCYSALLTKTNRIARIFGGAREGAQRPRFISPASQVAICLALISGQLLIVAAWLVVEAPGTGKETAPERREVVTLRCNHRDASMLGSLAYNVLLIALCTLYAFKTRKCPENFNEAKFIGFTMYTTCIIWLAFLPIFYVTSSDYRVQTTTMCVSVSLSGSVVLGCLFAPKLHIILFQPQKNVVSHRAPTSRFGSAAPRASANLGQGSGSQFVPTVCNGREVVDSTTSSL
# B2: HA-SNAP-mGluR3-C127A [modified: SNAP tag labelled with BG-LD555 (BG-LD655 in two-colour SiMPull); SNAP tag labelled with BG-LD555 (BG-LD655 in two-colour SiMPull)] [rat] / itself (parent complex)
# chain: LGDHNFMRREIKIEGDLVLGGLFPINEKGTGTEECGRINEDRGIQRLEAMLFAIDEINKDNYLLPGVKLGVHILDTCSRDTYALEQSLEFVRASLTKVDEAEYMAPDGSYAIQENIPLLIAGVIGGSYSSVSIQVANLLRLFQIPQISYASTSAKLSDKSRYDYFARTVPPDFYQAKAMAEILRFFNWTYVSTVASEGDYGETGIEAFEQEARLRNICIATAEKVGRSNIRKSYDSVIRELLQKPNARVVVLFMRSDDSRELIAAANRVNASFTWVASDGWGAQESIVKGSEHVAYGAITLELASHPVRQFDRYFQSLNPYNNHRNPWFRDFWEQKFQCSLQNKRNHRQVCDKHLAIDSSNYEQESKIMFVVNAVYAMAHALHKMQRTLCPNTTKLCDAMKILDGKKLYKEYLLKINFTAPFNPNKGADSIVKFDTFGDGMGRYNVFNLQQTGGKYSYLKVGHWAETLSLDVDSIHWSRNSVPTSQCSDPCAPNEMKNMQPGDVCCWICIPCEPYEYLVDEFTCMDCGPGQWPTADLSGCYNLPEDYIKWEDAWAIGPVTIACLGFLCTCIVITVFIKHNNTPLVKASGRELCYILLFGVSLSYCMTFFFIAKPSPVICALRRLGLGTSFAICYSALLTKTNCIARIFDGVKNGAQRPKFISPSSQVFICLGLILVQIVMVSVWLILETPGTRRYTLPEKRETVILKCNVKDSSMLISLTYDVVLVILCTVYAFKTRKCPENFNEAKFIGFTMYTTCIIWLAFLPIFYVTSSDYRVQTTTMCISVSLSGFVVLGCLFAPKVHIVLFQPQKNVVTHRLHLNRFSVSGTATTYSQSSASTYVPTVCNGREVLDSTTSSL
# Variants of: B1
# Experiment: SiMPull; shaded bar, data repeated from Figure 1F; read off a plot
row,Variant,screen value
1,chain 1 C103A,~91%

# Variants of: B2
# Experiment: SiMPull; SNAP-tagged constructs labeled with LD555; 6 movies; read off a plot
row,Variant,screen value
1,"chain 1 S664A, chain 1 F668A, chain 1 G672A",~74%

# — PMC8102066 (2021)
